# Experiment: soluble on expression in E. coli; label from the status in PepcDB or PDB records
row,Sequence,soluble on expression in E. coli
1,MGSDKIHHHHHHMKTTFNLSRFYKACNPSYTLNISNVLDRQYYIDFADVRGCKIVEELQRTIVRISPDEPTCQLFTGHIGCGKSTELQRLKTELELAGFHVVYFESSQDLDMADIDISDILLSVARQVSASLEGINIKLKGGYFTNLFKEVGDFLQSPIELSGQAELSLGIAKITAKTKDSTQMRNQLRQYLEPRTNSILQAINEEILERAVEQLKLRGQKGLVVIVDNLDRVDMRPLASGRSQPEYLFIDRGEQLRRLKCHLVYTIPLTLIFSNEYETLKNRLGGGIAPKVLPMVLVRQRDGSDYEPGMSLVRQLVLARAFPEVSLNERLLLITELFDHSQTLDRICRVSGGHIRNLLGLLYSCLQRQDPPFSRECLEAVIKDYRDDLLLAIDESQWELLFEVVQQQRVKGESDYQSLLRSMYLFEYRDPLGRWFGISPALAETEKVLAWQQKK,not soluble
2,MGSDKIHHHHHHMKVALLSPIAWRTPPRHYGPWERVVSLIAEGLVKKGVDVTLFATGDSKTAGRLEYICPIPYEENPNMDAKVWEAMHIAHLFEQAHKFDIIHNNYDFLPLSYSRQVDTPMITTIHGFSSPKILPIYREYNRNNYYVSISNADRSPDLDYYATVYHGIDLNELTLKLNAGSYLLYFGRIHPDKGTAQAIEIARKSDMQLLIAGIIQDKQYFNQQIYPRIDNKKVIYLGSVGPAKRDELLGNALALLHPIHFNEPFGLSVIEAMACGTPVIAFNKGSMPEVIKDGETGFLVDNVEMACEKLGSINKIKRANCRYWVEENFSQERMVSDYLSLYQEIIKGGKLPVRTPSLSGRCK,not soluble
3,MGSDKIHHHHHHMKVEVNSQALADAVAWTTRVIDARPATPILAGIRLEAIDGTLQLSAFNYAISARHHIEAGVDEAGSVLVLGKLLADITKSLPAAKTYLSTDGSTMTITSGKSTFTMQLMPESEYPDLPVVPTKLGQVDSPTFAQAVNQASVAVSREENRPVLTGIRVQFQGDKVIMSSTDRFRLARSSFTWTPEDATISTTALVRGSLLRDMARSLDEHQNVTIDFDADNPSLLGFENAGRVSTSQLIDGEFPAVDRLYADEYPIHAVINKQALIDAIKRVSLVAERNAPIRMVFSGQELTLSAGTADEAQAKEILDIDMDGEDITVAFNPSYLVDGLSAISEPFVRMKMTTAVKPVEFNGQQEADSDESMDYRYLLVPMRFNN,not soluble
4,MGSDKIHHHHHHMKVKAPGRINIIGEHTDYNDGYVLPFAVNRYVFLSIEGSERFIFHSENVNETVEMEKIEKLNKWTDYISGVIASFEKRGYRVSPVKISVSSNLPIGAGLSSSAALEVATAYAISEYFGFNVPKLELVKIAREAEVEFVGVRCGIMDQFTAVFGKKDHAIFLDTMTLEYEYVPLKLEGYEINLVDSNVKHELSSSEYNRRRQECEEVLKTLEKKSFREVTKEDLERLSGTLRKRAQHVLEENERVLKSVQALKEGDFETLGKLLFSSHESLRDLYEVSCEETDFIVDYLRGKEGILGARMVGGGFGGGVIVLSKKGAFGKIKEELVESYRKRFGIDLIFHEIESSDGVQKI,not soluble
5,MGSDKIHHHHHHMKVLLTRPEGRNQSMVDALNERGIEHCVTPLLCVEATPALPPETSHPLANVDMVVCISANAVSFADDTFKANDANVKGWPKVPYFAVGHATWEALQQIDIDALEAPDDCQQTEGLLTLPTLQHIQGKKITIIRGVGGREALAEQLTSRGAQVRYWEVYQRACPPLDGTIITQQWIDLGIDTVVVTSGEVLDNLINLVPKELFAWLRSCHIIVPSNRVEAQAHAFGITQVTNANAANSKAVLNALKL,not soluble
6,MGSDKIHHHHHHMKVLVFDVSAPYALFRRPYTTTSSYTLPFPPRTTLLGLVGCVLGYSTPERLDSAKVAVQIKNPLKFLRTGTNFVETKKDKKASKRTRISLQLLKNPAYRVFFSWEDEDFERLKNLLEHSETIFTPYLGVASFIARLNYVGKYEATRVADFPCEVHTVVPNTVKLLPEPSHYLIFERVTRKMDKERNMLESAVYIFKRDLSPVKVEGGEVWRVGEQNIVWM,not soluble
7,MGSDKIHHHHHHMKWNSNLYDHKHSFVAEYGKSMINFVNVGKDQKILDLGCGTGVLTNELAKNGATVIGTDLSKNMIDKAKTNYPNLIFQVKDATNLSFKNEFDTVFSNAVFHWISNQEKLLHSIYTCLKDNGTLICEFGAQNNISQIQTAFEKVIEQKGYSYCSPFFFPSKEEYKLLLDQAGFEVKHIIEYDRPTPLADGEKGLRNWICQFFASDLLEFSDEQKEQILFETEKLCKNSIWKNNQWVADYRRIQIIAVKNKNNGTK,not soluble
8,MGSDKIHHHHHHMLAFAARTVVKPLGLLKPSSLMKVSGRFKAHQDALPRLPVPPLQQSLDYYLKALQPIVSEEEWAHTKQLVDEFQTSGGVGERLQKGLERRAKKMENWLSEWWLKTAYLQFRQPVVIYSSPGVILPKQDFVDLQGQLRFAAKLIEGVLDFKSMIDNETLPVEFLGGQPLCMNQYYQILSSCRVPGPKQDSVVNFLKSKRPPTHITVVHNYQFFELDVYHSDGTPLTSDQIFVQLEKIWNSSLQSNKEPVGILTSNHRNTWAKAYNNLIKDKVNRESVNSIQKSIFTVCLDKQVPRVSDDVYRNHVAGQMLHGGGSKFNSGNRWFDKTLQFIVAEDGSCGMVYEHAAAEGPPIVALVDHVMEYTKKPELVRSPMVPLPMPKKLRFNITPEIKNDIEKAKQNLSIMIQDLDIMMLTFHHFGKDFPKSEKLSPDAFIQVALQLAYYRIYGQACATYESASLRMFHLGRTDTIRSASIDSLAFVKGMGDSTVPEQQKVELLRKAVQAHRAYTDRAIRGEAFDRHLLGLKLQAIEDLVSMPDIFMDTSYAIAMHFNLSTSQVPAKTDCVMFFGPVVPDGYGICYNPMEAHINFSVSAYNSCAETNAARMAHYLEKALLDMRTLLQNHPRAKL,not soluble
9,MGSDKIHHHHHHMLAGGKMGDMKITRHIHACVEISQGNDRIIIDPGTFGAPDLCGATILVTHNHADHVDPELLKPGMTIYAPRSVAHSIPVECHIVEHGRNFTVGSLSVEVLGSEHAMLTHSMPIAENVGYLINGRVLHPGDTFQPIKDVELALVPVNGPWVKMLDVEGYLKKFPPKRFIGIHDGIVNDRGLAINKKFLTHLGETYGSEYSPLEEGESLEI,not soluble
10,MGSDKIHHHHHHMLAQGQRFEGLLCGDDSSRCEVVEMAKLTQFLISGACALLITATSAIADPIAPAGKAIGQDGGGHTIYQVDANGISIGYKLIGQGAPMVMIMGLGGTADNWPPQVIEALSKNHQLILMDNRGMGHTTANDTPFSYPLFAADVIGLLDALGIKRSDVLGYSMGSTITQQLLLQYPDRFNKALIHATSTDGSNVAKALHGRVPTDPIVARQVEATTHWKTPLDKLPSIDNQVMLVVGTADNVVGTESSKTIASAIPGAWLVQFKGATHHLMYETPEGFSAAALTFFETNETVTPKIEPNASVAPPPTQP,not soluble
11,MGSDKIHHHHHHMLDSLFPIKRNYLDRNGHKLQYVNEGQGEPVVMVHGNPSWSFYYRNLVTALSPNHQCIVPDHIGCGLSDKPDDAGYDYTLKNRIDDLEALLDHLEVKEKITLIVHDWGGMIGMGYAARHPERIKKIVVLNTGAFHLPEAKPFPWALWICRNTLLGTVLVRGFNAFSSIASYVGVKRAPMPKAIREAYVAPFNSWANRISTLRFVQDIPLKPGDRNYELVSEISEKLNQFNQLPMMICWGLKDFVFDKHFLDEWKRRFPEAEVHEFADCGHYILEDASDEVVAQVQQFMAR,not soluble
12,MGSDKIHHHHHHMLEFPALRPFLWSGRYNRPLMPLTYLTRIAQTPAPTFQEEARAELIARLWSDLGYVTERDEVGNVLTRITPPGTEGRPALLLAAHLDTVFGGQTDVTVHDEGQRLRGPGVGDNSASLAVVTAMLRDFRTAPPLLRRPLWVAANVGEEGLGDLRGAKHLLAAHRPQLGAFVAVDGYLGVAVTQAVGVRRYRAQFVGPGGHSWGDQAPSALHALGLAISGLYALHLPAQPRTTLNVGTAAGGNSVNSIAGQAELLLDLRSLGADELAALDSRAQDVLHRAARDAGVSLRLERVGDRPGGDLHTGALLGMAHAAAREVRVDLRLAASSTDANAAAPHVLPALAFGVYRGGNAHREDEWVEKRSLAPGLTALKRLVALYQAAPLA,not soluble
13,MGSDKIHHHHHHMLENRVKTKQIFIGGVAIGGDAPISTQSMTFSKTADIESTKNQIDRLKLAGADLVRVAVSNEKDALALKELKKVSPLPLIADIHFHYKFALIAAQSVDAIRINPGNIGSKEKIKAVVDACKEKNIPIRIGVNAGSLEKQFDQKYGPTPKGMVESALYNAKLLEDLDFTNFKISLKASDVIRTIEAYRMLRPLVIYPFHLGVTEAGNLFSSSIKSAMALGGLLMEGIGDTMRVSITGELENEIKVARAILRHSGRLKEGINWISCPTCGRIEANLVDMAIKVEKRLSHIKTPLDISVMGCVVNALGEAKHADMAIAFGNRSGLIIKEGKVIHKLAEKDLFETFVIEVENLAKEREKSLKD,not soluble
14,MGSDKIHHHHHHMLFSAPPVLAPVVPGKALEFPQDFGAHNDFRIEWWYVTGWLETPTGKPLGFQITFFRTATEIDRDNPSHFAPDQLIIAHVALSDPAIGKLQHDQKIARAGFDLAYARTGNTDVKLDDWIFVRETDGRYRTRIEAEDFTLTFILTPSQPLMLQGENGFSRKGPGAPQASYYYSEPHLQVSGIINRQGEDIPVTGTAWLDREWSSEYLDPNAAGWDWISANLDDGSALMAFQIRGKDDSKIWAYAALRDASGHTRLFTPDQVSFHPIRTWRSARTQAVYPVATRVLTGETEWQITPLMDDQELDSRASAGAVYWEGAVTFTRDGQPAGRGYMELTGYVRPLSM,not soluble
15,MGSDKIHHHHHHMLGDLLTTFFEVARQGSITTAARQLGVSQPTVTARIRQLEDVYGVELFYRRASRVDLSDVGVALMPVVEQLMQQESNADYLLRNAGNLRFGNLRIGATGPYYILRSVAAFRQRYPAVEVSIEIGNSQQMIEALLEYRIDAAVSSHAVDDSRLARIRLASDPMVLVVHPEHPFARMPHIDIARLAECHLLVREHGSMTRQATEAALAACGQELPRHMVIGSREAIYEAIRQNIGASVVPAGEVPRDPSLRIVPFAQRPPVIHEYLYCLESRRHTRLVGALLECVESLAPHQQAQAA,not soluble
16,MGSDKIHHHHHHMLGLPGEMQYVPGIHSPNEGPRPMTIQRKQTREVRIGKVRIGGANPVVVQSMTNTDTRDVEQTVEQIRQLQEAGCEIVRLAVLNEDAAWAIKPIRSQVSVPLVADIHFDHRLAVSALEAGVDALRINPGNIGTRAAVDRVVDAAKAHNAVIRIGVNSGSLETDLIDQYGGPTPEAMVESAFRHIRMLEDRNFGDIKVSLKSSSVSRCIEAYTLLSAKCDYPLHIGVTEAGTVLRGSIKSAVGLGVLLWQGIGDTLRVSLTSDPVAEMAVAWEILRSLGLRSRGPEIIACPTCGRCEIGLIALAEEVERRLEGETESFKVAVMGCVVNGPGEAREADLGIAGGRDKGIIFRKGEIVRTVKGGSNLLAAFMEELDTFLAHRRAERKDD,not soluble
17,MGSDKIHHHHHHMLIDEEITLKKLETFLAFMRTGNLARAAAELGTSNVSVHRAIHSLESALRCPLFKHEGRNLTPLESAYVLEERAQKLVQEVLDTVRLTREAAGFSAERFKLGALYSLTVKTVPQLIMGLKLRRSALNIDLILGSNVDLFYQLKNMELDAILVSLNDSVSDPDCEHLPLFSDDIFLAVPVDSPYARLAEIDLSTLRDTPFVTLTQGFATHQDGTRVFQQAGFEPQIAMQVNDIFTLLSMVSSGVGHALLPKRIEAVYENRVRLIPLQPRYRLQQHIGVVFLKAKERDPNLLALLAECRMYSLRLEQEAAG,not soluble
18,MGSDKIHHHHHHMLISSRIVRSSLVNVPLRLSRCFTQAHRACKEEEVNSPLSSAAEQPEQKYTHFGSKTVLKSTKQKLVGDVFSSVANRYDLMNDVMSLGIHRLWKDHFINKLDAGKRPNSTTPLNFIDVAGGSGDIAFGLLDHAESKFGDTESTMDIVDINPDMLKEGEKRAMEQGKYFKDPRVRFLVSNGEKLEEIDSDSKDIYTVSFGIRNFTDIQKGLNTAYRVLKPGGIFYCLEFSKIENPLMDFAYQQWAKVLPVMGSMIANDYDSYQYLVESIERFPDQETFKSMIEKAGFKSAGYESLTFGICAIHWGIKV,not soluble
